Test results published in patent publication US20180105574A1.
Values joined by “and” are separate entries in the source; they are usually repeats but may differ in a detail not shown here. Identical values can stand only once.

How the values were obtained:
[1] = target: human fibrinogen (purified, commercial) (human) (UniProt P02671); assay: fibrinogen binding activity after ammonium sulfate precipitation, biotinylated fibrinogen
[2] = target: human fibrinogen (purified, commercial) (human) (UniProt P02671); assay: fibrinogen binding activity of purification step, biotinylated fibrinogen
[3] = target: human fibrinogen (purified, commercial) (human) (UniProt P02671); assay: fibrinogen binding activity of the anion exchange pool (partly purified Pfg), biotinylated fibrinogen
[4] = target: human fibrinogen (purified, commercial) (human) (UniProt P02671); assay: fibrinogen binding activity of the gel filtration pool (pure Pfg), biotinylated fibrinogen
[5] = target: P. acnes total surface protein extract; assay: plate assay, extract 0.8 to 50 µg/ml immobilized, biotinylated fibrinogen 0.1 µg/ml

UniProt P02671, sequence (P02671 20-629 limits assumed, chain 1 of 3): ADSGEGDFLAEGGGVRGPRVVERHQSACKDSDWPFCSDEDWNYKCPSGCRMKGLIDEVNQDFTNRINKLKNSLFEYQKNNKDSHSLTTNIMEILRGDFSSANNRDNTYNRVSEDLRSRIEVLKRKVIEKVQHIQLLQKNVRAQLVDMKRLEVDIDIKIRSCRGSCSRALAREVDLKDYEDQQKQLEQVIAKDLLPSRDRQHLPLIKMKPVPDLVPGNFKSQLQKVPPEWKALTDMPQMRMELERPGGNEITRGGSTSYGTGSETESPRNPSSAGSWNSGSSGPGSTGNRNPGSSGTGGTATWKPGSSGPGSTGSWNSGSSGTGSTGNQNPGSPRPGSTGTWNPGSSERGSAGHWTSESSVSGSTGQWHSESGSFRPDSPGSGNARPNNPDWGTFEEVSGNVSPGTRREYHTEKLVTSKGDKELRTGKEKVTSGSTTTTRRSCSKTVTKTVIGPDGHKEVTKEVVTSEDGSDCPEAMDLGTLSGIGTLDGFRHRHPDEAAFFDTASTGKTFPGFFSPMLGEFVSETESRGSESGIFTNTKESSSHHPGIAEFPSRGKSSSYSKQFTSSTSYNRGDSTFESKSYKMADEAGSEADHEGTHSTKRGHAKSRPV
UniProt P02671, sequence (chain, as listed by the source limits assumed, chain 2 of 3): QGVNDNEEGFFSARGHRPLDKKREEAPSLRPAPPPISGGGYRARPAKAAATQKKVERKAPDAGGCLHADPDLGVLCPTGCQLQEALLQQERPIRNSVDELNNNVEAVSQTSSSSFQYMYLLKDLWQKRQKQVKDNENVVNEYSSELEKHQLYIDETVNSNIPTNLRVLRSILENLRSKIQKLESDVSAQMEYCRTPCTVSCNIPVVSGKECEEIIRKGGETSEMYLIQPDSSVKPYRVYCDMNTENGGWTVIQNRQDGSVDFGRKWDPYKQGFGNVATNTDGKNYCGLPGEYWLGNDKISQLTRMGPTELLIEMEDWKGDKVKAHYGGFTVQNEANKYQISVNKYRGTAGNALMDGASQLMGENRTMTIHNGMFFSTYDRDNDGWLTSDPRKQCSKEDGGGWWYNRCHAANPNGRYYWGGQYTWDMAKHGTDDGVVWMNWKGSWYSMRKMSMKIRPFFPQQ
UniProt P02671, sequence (P02679 other isoform, or with tags, fused parts or gaps limits assumed, chain 3 of 3, further chain): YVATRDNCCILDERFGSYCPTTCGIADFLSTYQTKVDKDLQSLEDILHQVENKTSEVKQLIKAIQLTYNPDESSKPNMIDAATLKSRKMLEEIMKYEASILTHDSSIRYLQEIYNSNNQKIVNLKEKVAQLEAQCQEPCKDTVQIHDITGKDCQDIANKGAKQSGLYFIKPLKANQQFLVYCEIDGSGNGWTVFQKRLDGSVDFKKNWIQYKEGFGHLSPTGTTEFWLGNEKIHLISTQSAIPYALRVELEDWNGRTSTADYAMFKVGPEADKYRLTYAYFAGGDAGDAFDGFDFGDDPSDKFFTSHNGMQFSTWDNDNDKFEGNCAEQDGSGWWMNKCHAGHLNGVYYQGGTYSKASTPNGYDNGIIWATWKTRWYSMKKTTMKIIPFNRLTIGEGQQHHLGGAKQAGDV

Substance: P. acnes total surface protein extract
- fold increase in specific activity against the unconcentrated lithium extract [1]: 1.45 fold
- Specific Activity (fibrinogen binding activity per unit of protein) [2]: 423 U/mg and 290 U/mg
- Total units (fibrinogen binding activity) [2]: 390000 U and 160000 U

Substance: Pfg, 58-kDa P. acnes surface protein (fibrinogen binding protein; putative adhesion or S-layer protein YP_056792, locus tag PPA2127)
- Specific Activity (fibrinogen binding activity per unit of protein) [3]: 1030 U/mg
- Total units (fibrinogen binding activity) [3]: 3000 U
- Specific Activity (fibrinogen binding activity per unit of protein) [4]: 1840 U/mg
- Total units (fibrinogen binding activity) [4]: 368 U

Substance: human fibrinogen (purified, commercial) (from UniProt P02671 20-629; P02679 27-437) (ligand)
- concentration of immobilized extract at which binding reaches a plateau [5]: 6.25 µg/mL
